Data as given in paper PMC8287830, “(S)-3-Hydroxybutyryl-CoA Dehydrogenase From the Autotrophic 3-Hydroxypropionate/4-Hydroxybutyrate Cycle in Nitrosopumilus maritimus” (Frontiers in Microbiology, 2021).

How the values were obtained:
[1] = molecular target: the molecule itself; assay: SEC; Superdex 200 Increase (24 ml), 0.75 ml/min, 20 mM Tris-HCl pH 7.8, 150 mM KCl; native mass from a standard curve (apoferritin, alcohol dehydrogenase, BSA, carbonic anhydrase)
purified protein [2] = substrate: CC(=O)CC(=O)SCCNC(=O)CCNC(=O)[C@H](O)C(C)(C)COP(=O)(O)OP(=O)(O)OC[C@H]1O[C@@H](n2cnc3c(N)ncnc32)[C@H](O)[C@@H]1OP(=O)(O)O; assay: purified protein; format: biochemical, Nitrosopumilus maritimus; settings: 0.5 mM NADH, 100 mM Tris-HCl pH 7.8, 30°C, reverse reaction, monomeric enzyme
purified protein [3] = substrate: NC(=O)c1ccc[n+]([C@@H]2O[C@H](COP(=O)(O)OP(=O)(O)OC[C@H]3O[C@@H](n4cnc5c(N)ncnc54)[C@H](O)[C@@H]3O)[C@@H](O)[C@H]2O)c1; assay: purified protein; format: biochemical, Nitrosopumilus maritimus; settings: 0.2 mM (S)-3-hydroxybutyryl-CoA, 100 mM Tris-HCl pH 7.8, 30°C, forward reaction, monomeric enzyme
purified protein [4] = substrate: C[C@H](O)CC(=O)SCCNC(=O)CCNC(=O)[C@H](O)C(C)(C)COP(=O)(O)OP(=O)(O)OC[C@H]1O[C@@H](n2cnc3c(N)ncnc32)[C@H](O)[C@@H]1OP(=O)(O)O; assay: purified protein; format: biochemical, Nitrosopumilus maritimus; settings: 2 mM NAD, 100 mM Tris-HCl pH 7.8, 30°C, forward reaction, monomeric enzyme
purified protein [5] = substrate: NC(=O)c1ccc[n+]([C@@H]2O[C@H](COP(=O)(O)OP(=O)(O)OC[C@H]3O[C@@H](n4cnc5c(N)ncnc54)[C@H](OP(=O)(O)O)[C@@H]3O)[C@@H](O)[C@H]2O)c1; assay: purified protein; format: biochemical, Nitrosopumilus maritimus; settings: 0.2 mM (S)-3-hydroxybutyryl-CoA, 100 mM Tris-HCl pH 7.8, 30°C, forward reaction, monomeric enzyme
purified protein [6] = substrate: NC(=O)C1=CN([C@@H]2O[C@H](COP(=O)(O)OP(=O)(O)OC[C@H]3O[C@@H](n4cnc5c(N)ncnc54)[C@H](O)[C@@H]3O)[C@@H](O)[C@H]2O)C=CC1; assay: purified protein; format: biochemical, Nitrosopumilus maritimus; settings: 0.2 mM acetoacetyl-CoA, 100 mM Tris-HCl pH 7.8, 30°C, reverse reaction, monomeric enzyme

B1: (S)-3-hydroxybutyryl-CoA dehydrogenase Nmar_1028 (enzyme, Nitrosopumilus maritimus SCM1, UniProt A9A3J2 1-379, looked up)
chain: MAVKNITILGSGVMGHGIAQVSATAGYNVVLRDIEQGFLDKAMEKIRWSLDKLVSKEKISKEEGDSIFGRITPVVDLKEAVKDAELVIEVVPEIMDLKKKVYAELDEVAAPEVIFASNTSTLPITEIANTTSRPDKFIGIHFFNPPQLMKLVEVIPGEKTSQEITDLTKDYVKSVNKQAVLCRKDVPGFIINRLFIPMVHEACYAKDRTGATLEEIDSAVKFNLGFPMGIFELADFTGMDVIHKATVEMHLRDKKVINPHPTVEKMFDEKKLGQKSGEGYYKYSDDKYERVELSQELAQKFNPIQLVANILNNAAWLVTNGASDIEEIEKAAQLGLGLKKPLFETAKEIGIKNIVDELNKLAEEHGEFYKPDPLLTSMQ
notes: (S)-3-hydroxybutyryl-CoA dehydrogenase Nmar_1028 of Nitrosopumilus maritimus strain SCM1; gene amplified from genomic DNA from the initiation codon to after the stop codon; predicted size 44.8 kDa; No removal of the His10 tag is described; also called HBDH; source: E. coli Rosetta 2 (DE3), purified (Ni-NTA)
**Q.** B1 was tested. Which “stoichiometry N” value [1] did it give?
**A.** The value was 2.

**Q.** And the Km (purified protein [2])?
**A.** Its Km is 26 ± 4 µM.

**Q.** What about the Vmax (purified protein [2]) of the same protein?
**A.** Its Vmax is 145 µmol/min/mg.

**Q.** And the kcat (purified protein [2])?
**A.** The kcat was 108 s⁻¹.

**Q.** And the kcat/Km (purified protein [2])?
**A.** Its kcat/Km is 4.04e+06 M⁻¹ s⁻¹.

**Q.** What about the Km (purified protein [3]) of the same protein?
**A.** The Km was 100 ± 20 µM.

**Q.** What about the Vmax (purified protein [3]) of the same protein?
**A.** Its Vmax is 84.4 µmol/min/mg.

**Q.** What about the kcat/Km (purified protein [3]) of the same protein?
**A.** The kcat/Km was 630000 M⁻¹ s⁻¹.

**Q.** What about the Km (purified protein [4]) of the same protein?
**A.** The Km was 19 ± 2 µM.

**Q.** And the Vmax (purified protein [4])?
**A.** Its Vmax is 98.6 µmol/min/mg.

**Q.** And the kcat (purified protein [4])?
**A.** The kcat was 74 s⁻¹.

**Q.** And the kcat/Km (purified protein [4])?
**A.** Its kcat/Km is 3.88e+06 M⁻¹ s⁻¹.

**Q.** What about the Km (purified protein [5]) of the same protein?
**A.** Its Km is 2920 ± 630 µM.

**Q.** And the Vmax (purified protein [5])?
**A.** Its Vmax is 10.1 µmol/min/mg.

**Q.** What about the kcat/Km (purified protein [5]) of the same protein?
**A.** The kcat/Km was 3000 M⁻¹ s⁻¹.

**Q.** What about the Km (purified protein [6]) of the same protein?
**A.** Its Km is 16 ± 6 µM.

**Q.** What about the Vmax (purified protein [6]) of the same protein?
**A.** Its Vmax is 113 µmol/min/mg.

**Q.** And the kcat/Km (purified protein [6])?
**A.** Its kcat/Km is 5.27e+06 M⁻¹ s⁻¹.
